The values below are quoted from earlier work in PMC11271873.

Details in all cases: free peptide
In data set [1] the test system is Cterm (position 2, ----KK-----).
Data set [2] has as its system Nterm (position 1, -----KK----).
For data set [3], the system named is Nterm (position 1, -----KKK---).
Data set [4] concerns Cterm (position 3, ---KKK-----).

With Lys-Lys (di-lysine) (synthetic), the pKa is 3,01 in data set [1] and 7,53 in data set [2].

Consider Lys-Lys-Lys (tri-lysine) (synthetic), for which the pKa in data set [3] was 7,34; in data set [4], 3,08.
